Reference: patent publication US7648964B2, “Use of lacritin in promoting ocular cell survival” (University of Virginia Patent Foundation, priority 2004, dated 2010)

B1: lacritin: recombinant human lacritin from E. coli; mature 119 residue fragment (SEQ ID NO:10) of native lacritin SEQ ID NO:4 (protein, listed as Homo sapiens)
chain: EDASSDSTGADPAQEAGTSKPNEEISGPAEPASPPETTTTAQETSAAAVQGTAKVTSSRQELNPLKSIVEKSILLTEQALAKAGKGMHGGVPGGKQFIENGSEFAQKLLKKFSLLKPWA

What was measured:
NFAT = NFAT changes by Western blotting in HSG cells; format: cell-based, human
Description: There has been more evidence regarding PKC alpha translocation and NFAT activation.

[1] = tested on: tyrosine phosphorylation of phosphoproteins in HSG cells; assay: Phosphotyrosine blotting in HSG cells; format: cell-based, human; conditions: within the first minute
Experimental: (§1) For phosphotyrosine blotting and mitogenesis assays, cells in serum-containing media were seeded overnight in 24-well plates at a density of 0.5×10^5 cells/mm^2 corresponding to 20-30% confluency after cell attachment, incubated in serum-free media without supplements for 24 h (phosphotyrosine) or washed with serum-free media without supplements three times (mitogenesis) and incubated with lacritin (1-1000 nM), or positive controls EGF (1.6 nM) and 10% fetal bovine serum, or negative controls bovine serum albumin or no additive in serum-free media without supplements for the indicated times (phosphotyrosine) or 30 h (mitogenesis). […] After washing, bound antibodies were detected with peroxidase-labeled secondary antibody and ECL. […] Incorporation was stopped with ice-cold phosphate buffered saline and followed by addition of cold and then room temperature trichloracetic acid (10%) for 10 min each, washing of cells with phosphate buffered saline, solubilization with 1 N sodium hydroxide, neutralization with 1 N hydrochloric acid, addition of scintillation fluid and then quantitation in a scintillation counter. […] Seventy-two hours post-transfection, mitogenesis was assessed by co-addition of 10 […] lacritin and [^3H]-thymidine (2 mCi/ml) (Amersham, Piscataway N.J.) for 24 hrs. […]

Sertoli (TM3) cells = assay: 3H-thymidine uptake mitogenesis assay; format: cell-based, mouse
Experimental: as §1

Leydig (TM4) cells = assay: 3H-thymidine uptake mitogenesis assay; format: cell-based, mouse
Experimental: as §1

PLD = assay: Endogenous PLD activity in HSG cells; format: cell-based, human; conditions: bell-shaped activation curve
Experimental: We measured endogenous PLD activity after lacritin addition and obtained a bell-shaped activation curve that was optimal at 10 nM lacritin, thus recapitulating the same dose dependency observed for mitogenesis, PKCα translocation and PKCα dephosphorylation. To determine whether PKCα was upstream of PLD in lacritin signaling, cells were transfected with D7 siRNA. […] Transiently hypophosphorylated perinuclear Golgi PKCα appears to have at least two roles. It complexes with PLCγ2 leading to IP3 generation and calcium mobilization. It also activates PLD1.

[2] = tested on: p42 and p44 MAPK (MAPK1 and MAPK3); assay: p42/p44 MAPK activation blot in HSG cells; format: cell-based, human
Experimental: as §1

[3] = tested on: human submandibular ductal ('HSG') cells; assay: HSG ductal cell number in serum-free medium after four days; format: cell-based; conditions: BSA 10 ng/ml control
Experimental: FIGS. 2A and 2B represent lacritin-induced proliferation and tyrosine phosphorylation. FIG. 2A is a graphic representation of the number of human salivary gland (HSG) cells was determined four days after administering various amounts of lacritin (0 to 10 ng/ml of lacritin) to HSG cells in serum-free medium. FIG. 2B is a bar graph representing the proliferation of HSG cells upon administration of BSA (lane 1; 10 ng/ml) or serum (lane 2; 10%) was added for the same period of time. All experiments were performed on laminin-1-(0.05 μM) coated wells.
Quiescent human submandibular ductal (‘HSG’) cells were cultured in serum-free media containing increasing amounts of lacritin and cell proliferation was studied.

[4] = tested on: human glioma (U-1242-MG) cells; assay: 3H-thymidine uptake mitogenesis assay; format: cell-based; conditions: even at higher doses
[5] = tested on: human glioma (U-251-MG) cells; assay: 3H-thymidine uptake mitogenesis assay; format: cell-based; conditions: even at higher doses
[6] = tested on: human epidermal (A431) cells; assay: 3H-thymidine uptake mitogenesis assay; format: cell-based
[7] = tested on: mouse fibroblast (NIH/3T3) cells; assay: 3H-thymidine uptake mitogenesis assay; format: cell-based

| Molecule | effect on lacritin-induced changes of NFAT (NFAT) | tyrosine phosphorylation of at least nine phosphoproteins [1] | mitogenesis (Sertoli (TM3) cells) | mitogenesis (Leydig (TM4) cells) | concentration of optimal PLD activation (PLD) | activation of p42 and p44 MAPK [2] | ductal cell number relative to BSA negative control [3] | mitogenesis [4] | mitogenesis [5] | mitogenesis [6] | mitogenesis [7] |
| --- | --- | --- | --- | --- | --- | --- | --- | --- | --- | --- | --- |
| Cn1c2ccccc2c2c3c(c4c5ccccc5n(CCC#N)c4c21)CNC3=O [Go 6976] | abolish changes of NFAT | – | – | – | – | – | – | – | – | – | – |
| B1 | – | transient tyrosine phosphorylation | not mitogenic | not mitogenic | 10 nM | no activation | more than twofold | not mitogenic | not mitogenic | not mitogenic | not mitogenic |
